Measurements reported in IntAct's records for PubMed 32066962.

B1: Repressor of RNA polymerase III transcription MAF1 (Saccharomyces cerevisiae), P41910 (parent)
chain: MKFIDELDIERVNQTLNFETNDCKIVGSCDIFTTKAVASDRKLYKTIDQHLDTILQENENYNATLQQQLAAPETNQSPCSSPFYSNRRDSNSFWEQKRRISFSEYNSNNNTNNSNGNSSNNNNYSGPNGSSPATFPKSAKLNDQNLKELVSNYDSGSMSSSSLDSSSKNDERIRRRSSSSISSFKSGKSSNNNYSSGTATNNVNKRRKSSINERPSNLSLGPFGPINEPSSRKIFAYLIAILNASYPDHDFSSVEPTDFVKTSLKTFISKFENTLYSLGRQPEEWVWEVINSHMTLSDCVLFQYSPSNSFLEDEPGYLWNLIGFLYNRKRKRVAYLYLICSRLNSSTGEVEDALAKKPQGKLIIDDGSNEYEGEYDFTYDENVIDDKSDQEESLQ
partner: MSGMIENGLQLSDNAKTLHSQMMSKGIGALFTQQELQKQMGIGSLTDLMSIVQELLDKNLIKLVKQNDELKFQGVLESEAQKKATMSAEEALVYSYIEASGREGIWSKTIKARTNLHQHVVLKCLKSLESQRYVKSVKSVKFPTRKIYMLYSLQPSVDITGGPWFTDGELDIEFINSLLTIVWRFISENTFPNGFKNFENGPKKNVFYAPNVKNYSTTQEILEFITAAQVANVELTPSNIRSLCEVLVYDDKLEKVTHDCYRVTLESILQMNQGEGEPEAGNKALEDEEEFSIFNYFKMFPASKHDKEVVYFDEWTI

Variants of: B1
Conditions: with rpc6_yeast RPC34, P32910

effect of a mutation on the interaction | Variant
with no effect | T33E;T34E
disrupting interaction strength | D248A;D250A
with no effect | L318S;W319S
